Test results reported in publication PMC3985303.

Target: Guinea pig soluble FcRn (guinea pig)
Assay: SPR

Substance	Kd [µM]
human IgG1 purified from myeloma (from UniProt P01857)	5.2
human IgG4 purified from myeloma (from UniProt P01861)	6.8
human IgG2 purified from myeloma (from UniProt P01859)	4.2
